According to US20110293618A1 (MEDICAL AND BIOLOGICAL LABORATORIES, published 2011):

Assays:
[1] = target: T1, purified partial protein containing the FA58C domain of human CLCP1 (amino acid positions 284 to 526), … (human, UniProt Q96PD2 284-526); experiment: ELISA, hybridoma screening on immunogen-coated plate
T1 construct: also called partial protein containing FA58C domain; region containing FA58C; not shown: myc-His tag
T1 sequence: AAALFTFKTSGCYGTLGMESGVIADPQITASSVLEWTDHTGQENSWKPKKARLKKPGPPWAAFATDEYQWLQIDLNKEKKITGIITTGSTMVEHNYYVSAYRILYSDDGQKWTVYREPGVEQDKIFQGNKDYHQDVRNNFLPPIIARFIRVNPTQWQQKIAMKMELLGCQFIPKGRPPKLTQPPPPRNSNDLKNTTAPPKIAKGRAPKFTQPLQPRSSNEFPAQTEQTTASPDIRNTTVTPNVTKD
Excerpt: After expansion culture in HT medium [RPMI1640, HT-supplement (Invitrogen; 21060-017), Penicillin, and Streptomycin] supplemented with 15% FBS, the cells were cloned into single clones by the limiting dilution method. Eleven hybridoma clones producing anti-human CLCP1 antibody were obtained by the method described above.

[2] = target: T2, human CLCP1 (CUB, LCCL-homology, coagulation factor V/VIII homology domains protein), full length, on cells (human, UniProt Q96PD2 67-775); experiment: flow cytometry on H460-LNM35 cells, antibody 5 ug/ml, PE anti-mouse IgG
T2 construct: also called ESDN; DCBLD2
T2 sequence: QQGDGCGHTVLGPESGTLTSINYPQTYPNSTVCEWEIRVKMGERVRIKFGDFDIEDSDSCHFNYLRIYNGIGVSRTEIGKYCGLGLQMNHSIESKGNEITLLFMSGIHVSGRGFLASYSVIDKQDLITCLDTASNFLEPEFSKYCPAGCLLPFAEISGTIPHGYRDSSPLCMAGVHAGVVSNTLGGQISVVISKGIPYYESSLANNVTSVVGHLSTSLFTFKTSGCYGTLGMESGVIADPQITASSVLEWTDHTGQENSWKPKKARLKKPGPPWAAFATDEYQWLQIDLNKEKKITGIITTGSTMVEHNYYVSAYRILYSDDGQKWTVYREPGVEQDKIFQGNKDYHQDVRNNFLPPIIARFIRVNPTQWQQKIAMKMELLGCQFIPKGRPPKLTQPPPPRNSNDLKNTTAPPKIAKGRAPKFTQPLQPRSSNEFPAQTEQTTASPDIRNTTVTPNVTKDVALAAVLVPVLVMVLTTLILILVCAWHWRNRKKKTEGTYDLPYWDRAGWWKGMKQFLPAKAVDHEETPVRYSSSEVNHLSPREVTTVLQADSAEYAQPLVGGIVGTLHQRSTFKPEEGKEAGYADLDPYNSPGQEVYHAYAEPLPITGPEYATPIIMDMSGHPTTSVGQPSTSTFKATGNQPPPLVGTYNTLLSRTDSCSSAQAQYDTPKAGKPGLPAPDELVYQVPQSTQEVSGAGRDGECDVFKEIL
Experimental: The antibodies prepared as described above were assessed for the reactivity to endogenous human CLCP1 by testing their reactivity to cells of high CLCP1-expressing line H460-LNM35 according to the following method. Anti-human CLCP1 antibody was purified from culture supernatant of each hybridoma clone by a conventional affinity purification method using Protein A-Sepharose. The purified antibodies were each diluted to 5 μg/ml, and the reaction intensity to H460-LNM35 was assessed by flow cytometry. In this assay, the anti-CLCP1 monoclonal antibody bound on the cell surface was detected by using a phycoerythrin-labeled anti-mouse IgG antibody. All samples were processed under the same conditions.

[3] = target: T3, endogenous human CLCP1 in H460-LNM35 cell lysate (human, UniProt Q96PD2 67-775); experiment: Western blot of H460-LNM35 lysate; almost no signal in CLCP1-knockdown cells
T3 construct: Same protein as m1 but solubilised: SDS lysate for Western blot (denatured, reduced) or NP-40 lysate for immunoprecipitation; also called endogenous CLCP1
T3 sequence: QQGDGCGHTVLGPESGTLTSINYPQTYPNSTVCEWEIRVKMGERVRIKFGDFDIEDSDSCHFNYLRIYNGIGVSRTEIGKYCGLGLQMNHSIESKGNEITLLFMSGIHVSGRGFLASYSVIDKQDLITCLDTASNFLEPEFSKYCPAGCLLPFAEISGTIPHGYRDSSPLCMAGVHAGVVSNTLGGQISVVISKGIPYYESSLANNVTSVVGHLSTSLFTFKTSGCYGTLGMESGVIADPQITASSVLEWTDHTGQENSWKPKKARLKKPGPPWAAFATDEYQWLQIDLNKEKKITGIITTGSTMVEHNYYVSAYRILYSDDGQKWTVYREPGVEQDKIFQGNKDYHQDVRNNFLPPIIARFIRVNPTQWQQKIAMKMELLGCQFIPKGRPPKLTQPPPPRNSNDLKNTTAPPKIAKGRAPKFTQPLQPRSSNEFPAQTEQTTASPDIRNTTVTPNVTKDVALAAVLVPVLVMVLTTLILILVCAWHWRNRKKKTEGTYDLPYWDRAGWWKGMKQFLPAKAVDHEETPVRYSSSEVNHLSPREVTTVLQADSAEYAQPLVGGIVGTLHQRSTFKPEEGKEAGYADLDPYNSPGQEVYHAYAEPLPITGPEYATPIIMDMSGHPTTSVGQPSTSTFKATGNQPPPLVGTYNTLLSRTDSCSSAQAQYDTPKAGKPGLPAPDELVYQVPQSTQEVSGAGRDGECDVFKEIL
Experimental: As described in the reference, Nagai H, et al., Oncogene 26: 4025-4031 (2007), a subline that constitutively expresses a CLCP1 siRNA as a short hairpin RNA (shRNA) biosynthesized in cells has been established from the high expressing CLCP1 cell line H460-LNM35. […] Western blotting was carried out using siCLCP1-3 #9 cells (CLCP1 Knockdown in FIG. 8) and H460-LNM35 cells.
2×10⁶ cells of the high expressing CLCP1 cell line H460-LNM35 and siCLCP1-3 #9 line were each suspended in lysis buffer [50 mM Tris (pH 6.8), 5% glycerol, 2% SDS], and the protein concentration was determined using the DC Protein Assay Kit (Bio-Rad). Then, 2-mercaptoethanol was added at 5.3% to the lysates. After heating, 20 μg each of the lysates were subjected to SDS-PAGE, followed by Western blotting with each of the antibodies and an HRP-labeled anti-mouse or anti-rabbit antibody. […] Meanwhile, there was almost no detectable signal in siCLCP1-3 #9 cells.

[4] = target: T4, E. coli-produced recombinant protein corresponding to aa 195-aa 457 in SEQ ID NO: 2 (human, UniProt Q96PD2 195-457); experiment: ELISA on purified E. coli fragment
T4 construct: pET28a expression system; vector-encoded tag residues not described
T4 sequence: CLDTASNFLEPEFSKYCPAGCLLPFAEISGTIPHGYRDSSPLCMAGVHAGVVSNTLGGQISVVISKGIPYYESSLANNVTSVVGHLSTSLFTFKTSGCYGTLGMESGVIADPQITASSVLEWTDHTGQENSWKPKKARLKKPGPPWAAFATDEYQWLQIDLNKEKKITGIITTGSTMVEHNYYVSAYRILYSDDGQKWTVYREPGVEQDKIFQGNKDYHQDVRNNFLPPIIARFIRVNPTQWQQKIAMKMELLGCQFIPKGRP
Experimental: (§1) Each antibody was assayed by ELISA using the purified proteins prepared described above.

[5] = target: T5, E. coli-produced recombinant protein corresponding to aa 195-aa 453 in SEQ ID NO: 2 (human, UniProt Q96PD2 195-453); experiment: ELISA on purified E. coli fragment
T5 construct: pET28a, BL21, urea-solubilised, TALON-purified; vector-encoded tag residues not described
T5 sequence: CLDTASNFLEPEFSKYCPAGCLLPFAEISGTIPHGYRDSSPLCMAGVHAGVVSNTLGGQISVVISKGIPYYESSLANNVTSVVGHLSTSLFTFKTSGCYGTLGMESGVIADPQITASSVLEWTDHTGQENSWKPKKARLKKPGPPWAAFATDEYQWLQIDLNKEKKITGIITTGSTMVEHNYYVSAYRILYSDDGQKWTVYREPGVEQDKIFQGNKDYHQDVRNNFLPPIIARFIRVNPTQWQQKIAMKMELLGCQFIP
Experimental: as §1

[6] = target: T6, E. coli-produced recombinant protein corresponding to aa 195-aa 465 in SEQ ID NO: 2 (human, UniProt Q96PD2 195-465); experiment: ELISA on purified E. coli fragment
T6 construct: pET28a expression system; vector-encoded tag residues not described
T6 sequence: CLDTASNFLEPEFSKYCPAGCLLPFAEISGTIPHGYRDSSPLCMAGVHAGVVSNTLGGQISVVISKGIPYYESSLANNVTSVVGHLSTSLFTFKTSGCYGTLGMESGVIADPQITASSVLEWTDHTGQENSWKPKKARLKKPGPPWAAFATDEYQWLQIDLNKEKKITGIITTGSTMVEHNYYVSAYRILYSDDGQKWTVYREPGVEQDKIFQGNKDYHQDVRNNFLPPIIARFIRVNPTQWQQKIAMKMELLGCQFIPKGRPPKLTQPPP
Experimental: as §1

[7] = target: T7, E. coli-produced recombinant protein corresponding to aa 195-aa 461 in SEQ ID NO: 2 (human, UniProt Q96PD2 195-461); experiment: ELISA on purified E. coli fragment
T7 construct: pET28a expression system; vector-encoded tag residues not described
T7 sequence: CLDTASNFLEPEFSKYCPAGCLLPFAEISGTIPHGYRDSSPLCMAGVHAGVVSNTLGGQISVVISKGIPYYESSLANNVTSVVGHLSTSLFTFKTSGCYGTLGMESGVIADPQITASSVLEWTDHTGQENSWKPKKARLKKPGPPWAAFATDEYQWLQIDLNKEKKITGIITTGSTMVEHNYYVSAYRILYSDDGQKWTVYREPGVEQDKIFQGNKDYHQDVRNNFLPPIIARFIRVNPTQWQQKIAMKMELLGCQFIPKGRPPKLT
Experimental: as §1

[8] = target: T2, human CLCP1 (CUB, LCCL-homology, …); experiment: cell-based or functional assay

B1: FA17-9 (antibody, V domains shown)
VH: EVQLQQSGPELVKPGASVKMSCKASGYTFTTYVMHWVKQKPGQGLEWIGYINPYNDGTKYNEKFKGKATLTSDKSSSTAYMELSSLTSEDSAVYYCARGANYYGSSYNWSFDVWGAGTTVTVSS
VL: DIQMTQSPSSLSASLGGKVTITCKASQDINKYIAWYQHKPGEGPRLLIHYTSTLQPGIPSRFSGSGSGRDYSFSISNLEPEDIATYYCLQYDYLWTFGGGTKL
notes: Mouse monoclonal; also called antibody No. FA17-9; Antibody 1
- binding result [1]: binds
- binding result [2]: binds
- binding result [3]: binds

B2: FA19-1 (antibody, V domains shown)
VH: EVQLQQSGPELVKPGASVKMSCKASGYTFTTYIMHWVKQKPGQGLEWIGYINPYNDGTKYNEKFKGEATLTSDKSSSTAYMELSSLTSEDSAVYYCARGANYYGSNYNWSFDVWGAGTTVTVSS
VL: DIQMTQSPSSLSASLGGKVTITCRASQDINKYIAWYQHKPGKGPRLLIHHTCTLQPGIPSRFSGSGSGRDYSFSISNLEPEDIATYYCLQYDYLWTFGGGTKL
notes: Mouse monoclonal; also called antibody No. FA19-1; Antibody 2
- binding result [4]: no binding
- binding result [5]: no binding
- binding result [6]: no binding
- binding result [7]: no binding

B3: chimeric FA19-1 antibody (antibody, V domains shown)
VH: EVQLQQSGPELVKPGASVKMSCKASGYTFTTYIMHWVKQKPGQGLEWIGYINPYNDGTKYNEKFKGEATLTSDKSSSTAYMELSSLTSEDSAVYYCARGANYYGSNYNWSFDVWGAGTTVTVSS
VL: DIQMTQSPSSLSASLGGKVTITCRASQDINKYIAWYQHKPGKGPRLLIHHTCTLQPGIPSRFSGSGSGRDYSFSISNLEPEDIATYYCLQYDYLWTFGGGTKL
- ADCC, % cytotoxicity (lactate dehydrogenase release), A549 targets, antibody 10 ug/ml, E/T ratio 50, five donors [8]: 47.1%
- ADCC, % cytotoxicity (lactate dehydrogenase release), NCI-H460-LNM35 targets, antibody 10 ug/ml, E/T ratio 50 [8]: 32.4%
